Experimental data reported in US20150173367.

Test system: RepN (N-terminal 191 residues of TYLCV Rep) (Tomato yellow leaf curl virus)
Experiment: EMSA
Conditions: 10 mM Tris-HCl, 100 mM NaCl, 5 mM MgCl2, 0.1 mM ZnCl2, pH 7.5, on ice

For “TYLCV replication origin DNA containing Rep-binding direct repeats”, which Kd is on record?
Its Kd is 0.03 µM.
